± gives the standard deviation of the averaged measurements.
B1: library; a variant is named by its letters at X, in order (parent)
chain: MNIQIGELAKRTACPVVTIRFYEQEGLLPPPGRSRGNFRLYGEEHVERLQFIRHCRSLDMPLSXVRTLLSYRKRPDQDCGEVXMLLDEHXRQVESRIGALLELXHXLVELREACSGARPAQSCGILQGLSDCVCDTRGTTAHXSD

Legend:
[1] = variants of: B1; assay: sfGFP reporter fluorescence (15 h) (µM FITC); higher = higher leak; conditions: library round: Round 3b; ligand: none
Method: (§1)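 Cell-free biosensing: 1 µL Echo-assembled CFE reactions with linear PbrR variant templates (5 nM) and pPbrR-sfGFP reporter, with 1 µM Pb, 30 µM Zn or no ligand; endpoint sfGFP fluorescence after 15 h at 30 °C calibrated as µM FITC. Round 3b rational combinatorial PbrR mutants; 3 biological replicates.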

[2] = variants of: B1; assay: sfGFP reporter fluorescence (15 h) (µM FITC); higher = stronger transcriptional activation; conditions: library round: Round 3b
Method: as §1

Variant	sfGFP reporter fluorescence [1]	sfGFP reporter fluorescence ([2]; ligand: 1 µM Pb)	sfGFP reporter fluorescence ([2]; ligand: 30 µM Zn)
KFAVHR	0.0469 ± 0.0029	0.631 ± 0.038	0.171 ± 0.017
KFAVHT	0.0459 ± 0.0029	0.632 ± 0.071	0.179 ± 0.029
KFAVHP	0.0477 ± 0.002	0.656 ± 0.07	0.198 ± 0.014
KFAKHT	0.0669 ± 0.0082	0.777 ± 0.035	0.299 ± 0.047
KFAKHR	0.0685 ± 0.0035	0.843 ± 0.073	0.33 ± 0.014
DFATHR	0.0436 ± 0.0022	0.053 ± 0.0037	0.0482 ± 0.0037
DFATHT	0.0408 ± 0.0051	0.0491 ± 0.0032	0.0448 ± 0.0049
DFAVHR	0.0438 ± 0.0023	0.059 ± 0.0031	0.0519 ± 0.0031
DFAVHT	0.0401 ± 0.0051	0.0539 ± 0.001	0.0473 ± 0.0027
DFITAT	0.0436 ± 0.0017	0.0559 ± 0.004	0.0439 ± 0.00085
DFITAR	0.0422 ± 0.0057	0.0635 ± 0.0015	0.0455 ± 0.0024
KFATAP	0.0501 ± 0.0052	0.3845 ± 0.0014	0.0524 ± 0.00067
KFATAR	0.0492 ± 0.0024	0.462 ± 0.068	0.0554 ± 0.0012
KFATAT	0.0465 ± 0.0042	0.455 ± 0.007	0.056 ± 0.0037
KFIVEP	0.0475 ± 0.004	0.567 ± 0.017	0.107 ± 0.013
KFIVET	0.0511 ± 0.0019	0.453 ± 0.057	0.094 ± 0.006
KFIVER	0.0558 ± 0.0015	0.491 ± 0.0094	0.0916 ± 0.0098
DFAVAR	0.0466 ± 0.0033	0.0575 ± 0.0018	0.0492 ± 0.0035
DFAVAT	0.0442 ± 0.0011	0.0558 ± 0.0015	0.0449 ± 0.0022
DFAVAP	0.0435 ± 0.0045	0.0535 ± 0.0046	0.0484 ± 0.0012
KFAVEP	0.0452 ± 0.0037	0.533 ± 0.03	0.0557 ± 0.0048
KFAVER	0.0512 ± 0.0022	0.51 ± 0.029	0.056 ± 0.0049

Variant	sfGFP reporter fluorescence [1]	sfGFP reporter fluorescence ([2]; ligand: 1 µM Pb)	sfGFP reporter fluorescence ([2]; ligand: 30 µM Zn)
KFAVET	0.0489 ± 0.0017	0.41 ± 0.071	0.0549 ± 0.0017
KFAKAT	0.0569 ± 0.0013	0.564 ± 0.039	0.0878 ± 0.0047
KFAKAR	0.0579 ± 0.0044	0.663 ± 0.0095	0.0902 ± 0.0064
KFAKAP	0.0577 ± 0.0042	0.495 ± 0.031	0.073 ± 0.0081
DFIVAT	0.0456 ± 0.0052	0.0992 ± 0.004	0.0496 ± 0.0011
DFAKAR	0.0429 ± 0.0064	0.0535 ± 0.005	0.0435 ± 0.0051
DFAKAT	0.0421 ± 0.0041	0.0502 ± 0.0044	0.04614 ± 0.00019
KFIKET	0.0439 ± 0.002	0.135 ± 0.0014	0.0531 ± 0.0027
KFIKER	0.0412 ± 0.0027	0.147 ± 0.0078	0.0496 ± 0.0038
DFITER	0.0424 ± 0.0031	0.0522 ± 0.0026	0.0451 ± 0.0034
DFITET	0.0393 ± 0.0042	0.0493 ± 0.0022	0.0433 ± 0.0032
KFITHR	0.0496 ± 0.0019	0.554 ± 0.021	0.25 ± 0.036
KFITHT	0.0512 ± 0.0076	0.492 ± 0.046	0.21 ± 0.024
KIAKAP	0.0576 ± 0.0074	0.674 ± 0.062	0.0578 ± 0.0037
KFATEP	0.0465 ± 0.0032	0.442 ± 0.0057	0.0564 ± 0.0029
KFATET	0.0469 ± 0.0028	0.404 ± 0.017	0.0606 ± 0.0013
KFATER	0.0457 ± 0.0041	0.594 ± 0.024	0.0571 ± 0.014
DFIVET	0.0435 ± 0.0054	0.0785 ± 0.0019	0.0449 ± 0.0017
DFIVER	0.0476 ± 0.0017	0.0836 ± 0.0022	0.0461 ± 0.001
KFITER	0.0486 ± 0.00051	0.435 ± 0.016	0.0763 ± 0.005
KFITEP	0.0482 ± 0.0055	0.36 ± 0.014	0.0694 ± 0.0043
KFITET	0.0451 ± 0.0028	0.3727 ± 0.0019	0.0737 ± 0.0037
